Data reported in patent US20230312686A1 (Bristol-Myers Squibb, published 2023).
“And” between values parts separate entries of the source, which are not always exact repeats. Identical values can stand only once.

How the values were obtained:
[1] = target: T1, Recombinant human glypican-3 (aa 1-559), His-tagged, R&D Systems (human, UniProt P51654 25-559); experiment: SPR, as in the previous Examples
T1 construct: also called huGPC3; Hu GPC3-His
Protocol: (§1) For off-rate measurements, single 200 nM adnectin/AdxDC concentrations were injected using identical conditions. One 30s injection of 10 mM glycine pH 1.7 was used to remove bound adnectin and regenerate the GPC3 surfaces between assay cycles.
(§2) Rate constants kₐ (kₒₙ) and kd (koff) were derived from reference-subtracted sensorgrams fit to a 1:1 binding model in Biacore T100 Evaluation Software v2.0.4 (GE Healthcare). The affinity constant, KD was calculated from the ratio of rate constants kd/kₐ.
(§3) FITC Labeling: ADX_6077_F02 and non-binding control Adnectin were reduced with DTT or TCEP followed by G25 gel filtration chromatography or dialysis. Excess Fluorescein-5-maleimide reagent (Thermo Scientific) was then added and the mixture incubated at room temperature for approximately 2 hours followed by G25 gel filtration chromatography or extensive dialysis (3-4 buffer changes). The resulting degree of labeling was measured by absorbance following the manufacturer's instructions and/or by mass spectrometry. The binding affinities of FITC-labeled and PEGylated […] for human and murine GPC3 was evaluated as described in the previous Examples, and the results are summarized in Table 13.

[2] = target: T2, Recombinant murine glypican-3 (aa 25-557), R&D Systems (murine, UniProt Q8CFZ4 25-557); experiment: SPR, as in the previous Examples
T2 construct: also called muGPC3; Mu GPC3-His
Protocol: as §1, §2, §3

[3] = target: T3, Human glypican-3, recombinant, construct not stated (human, UniProt P51654 25-559, limits assumed, biotin in the positional scanning (site not stated)); experiment: ELISA, recombinant GPC3
T3 construct: also called recombinant GPC3; human GPC3

[4] = target: T1, Recombinant human glypican-3 (aa …); experiment: SPR, Biacore T100, GPC3-His immobilised, 1:1 fit
Protocol: (§4) The binding affinities of the alkylated GPC3 DG mutant adnectins for human and murine GPC3 were further evaluated by Biacore T100 using HBS-P+ running buffer with direct immobilization of human and mouse GPC3 proteins [Hu (Fc 2,3) and Mu (Fc 4) GPC3-His (R&D Systems)] with a 200-1.56 nM series injected for 180s association, 600s dissociation.

[5] = target: T2, Recombinant murine glypican-3 (aa …); experiment: SPR, Biacore T100, GPC3-His immobilised, 1:1 fit
Protocol: as §4

[6] = target: T1, Recombinant human glypican-3 (aa …); experiment: SPR 1-point off-rate, alkylated mutant vs parent
[7] = target: T2, Recombinant murine glypican-3 (aa …); experiment: SPR 1-point off-rate, alkylated mutant vs parent
[8] = target: T4, Human glypican-3 on cells (Huh7, Hep3B, H446, Hep3B xenograft tissue) (human, UniProt P51654 25-554); experiment: flow cytometry on Huh7 cells
T4 construct: Endogenous GPC3 of human tumour cell lines; also called huGPC3 on cells; GPC3 receptor
Protocol: The binding of DG variants to huGPC3 in DG GPC3 AdxDCs mutants were evaluated by flow cytometry for binding to Huh7 carcinoma cells grown in DMEM media with 10% FBS. Cells were harvested using Versene, an EDTA cell dissociation solution from Lonza, Cat. #17-711E. Tumor cells (1E5 cells/reaction) were suspended in FACS buffer (PBS, 1% BSA, 0.05% Na Azide) and mixed with a serial dilution of AdxDC for one hour on ice. Cells were washed three times with FACS buffer, and bound AdxDC was detected with an in house anti-scaffold monoclonal Ab and PE-conjugated Antibody from (RnD Systems), cat #NL007, and read on a flow cytometer.

T4 sequence (P51654 25-554 limits assumed): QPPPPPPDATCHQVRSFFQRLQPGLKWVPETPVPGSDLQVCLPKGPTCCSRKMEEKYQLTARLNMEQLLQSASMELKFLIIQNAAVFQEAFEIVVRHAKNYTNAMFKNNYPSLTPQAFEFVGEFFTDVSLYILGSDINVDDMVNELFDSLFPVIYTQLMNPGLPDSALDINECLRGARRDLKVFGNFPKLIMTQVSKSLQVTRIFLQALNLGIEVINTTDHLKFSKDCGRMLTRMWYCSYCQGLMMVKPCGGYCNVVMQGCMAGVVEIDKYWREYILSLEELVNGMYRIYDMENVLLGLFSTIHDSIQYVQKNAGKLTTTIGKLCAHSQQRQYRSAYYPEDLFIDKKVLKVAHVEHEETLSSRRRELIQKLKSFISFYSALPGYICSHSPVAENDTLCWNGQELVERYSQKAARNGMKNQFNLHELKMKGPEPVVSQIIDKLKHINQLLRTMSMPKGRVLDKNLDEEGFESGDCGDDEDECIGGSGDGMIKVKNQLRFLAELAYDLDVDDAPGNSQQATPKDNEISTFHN
T1 sequence (P51654 other isoform, or with tags, fused parts or gaps): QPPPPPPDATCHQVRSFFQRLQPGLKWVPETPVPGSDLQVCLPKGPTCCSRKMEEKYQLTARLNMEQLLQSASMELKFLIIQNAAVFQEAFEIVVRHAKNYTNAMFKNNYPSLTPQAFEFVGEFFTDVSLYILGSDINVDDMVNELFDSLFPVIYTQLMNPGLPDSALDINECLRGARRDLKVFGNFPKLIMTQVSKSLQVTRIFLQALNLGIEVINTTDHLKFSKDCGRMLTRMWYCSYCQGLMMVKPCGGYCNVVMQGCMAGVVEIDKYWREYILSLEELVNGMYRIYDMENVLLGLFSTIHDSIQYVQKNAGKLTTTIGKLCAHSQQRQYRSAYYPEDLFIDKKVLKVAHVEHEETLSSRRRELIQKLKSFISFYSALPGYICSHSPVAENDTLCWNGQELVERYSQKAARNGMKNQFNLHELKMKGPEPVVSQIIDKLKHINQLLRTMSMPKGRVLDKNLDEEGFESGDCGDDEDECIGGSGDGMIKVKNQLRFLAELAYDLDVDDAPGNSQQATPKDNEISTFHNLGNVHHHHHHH
T2 sequence (Q8CFZ4 25-557 limits assumed, form in doubt): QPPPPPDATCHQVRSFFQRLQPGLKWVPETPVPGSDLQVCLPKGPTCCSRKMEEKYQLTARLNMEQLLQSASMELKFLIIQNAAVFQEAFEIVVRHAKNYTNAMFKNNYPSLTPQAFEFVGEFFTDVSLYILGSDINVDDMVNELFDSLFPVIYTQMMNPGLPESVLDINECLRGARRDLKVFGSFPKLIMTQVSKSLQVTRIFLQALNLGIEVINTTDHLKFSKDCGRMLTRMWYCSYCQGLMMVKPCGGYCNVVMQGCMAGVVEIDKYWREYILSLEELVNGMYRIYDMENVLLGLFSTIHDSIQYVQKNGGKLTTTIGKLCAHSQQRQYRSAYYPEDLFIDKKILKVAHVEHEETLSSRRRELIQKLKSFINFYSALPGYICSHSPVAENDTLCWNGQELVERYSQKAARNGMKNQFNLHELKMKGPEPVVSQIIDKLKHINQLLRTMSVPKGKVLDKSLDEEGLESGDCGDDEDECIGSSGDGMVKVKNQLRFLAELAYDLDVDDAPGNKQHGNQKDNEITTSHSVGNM
T3 sequence (P51654 25-559 limits assumed): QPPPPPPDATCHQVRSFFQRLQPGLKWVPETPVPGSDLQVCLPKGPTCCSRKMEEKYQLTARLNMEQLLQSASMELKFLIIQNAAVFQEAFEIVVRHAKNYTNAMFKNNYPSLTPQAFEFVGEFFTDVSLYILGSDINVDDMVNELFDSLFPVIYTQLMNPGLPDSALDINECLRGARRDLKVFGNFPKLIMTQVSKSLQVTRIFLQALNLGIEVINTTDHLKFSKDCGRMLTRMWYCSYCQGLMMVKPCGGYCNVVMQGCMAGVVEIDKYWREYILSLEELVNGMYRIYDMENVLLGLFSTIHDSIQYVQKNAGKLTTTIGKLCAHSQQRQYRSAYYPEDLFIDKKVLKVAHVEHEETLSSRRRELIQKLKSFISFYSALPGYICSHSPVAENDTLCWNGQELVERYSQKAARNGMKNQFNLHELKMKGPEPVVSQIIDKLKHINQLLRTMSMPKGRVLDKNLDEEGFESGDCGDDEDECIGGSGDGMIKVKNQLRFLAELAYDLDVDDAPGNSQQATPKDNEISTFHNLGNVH

B1: 6077_F02-FITC (designed binder)
chain: MGVSDVPRDLEVVAATPTSLLISWSDDYHAHRYYRITYGETGGNSPVQEFTVPGEHVTATISGLKPGVDYTITVYAVTYDGEKAATDWSISINYRTPCHHHHHH
modifications: fluorescein-5-maleimide on the C-terminal cysteine
notes: also called FITC-labeled ADX_6077_F02
[1]
  Kd: 6.11 nM
  koff: 0.000498 s⁻¹
  kon: 81500 M⁻¹ s⁻¹
[2]
  Kd: 3.97 nM
  koff: 0.000446 s⁻¹
  kon: 112000 M⁻¹ s⁻¹

B2: 6077_F02-PEG3.4 (designed binder)
chain: MGVSDVPRDLEVVAATPTSLLISWSDDYHAHRYYRITYGETGGNSPVQEFTVPGEHVTATISGLKPGVDYTITVYAVTYDGEKAATDWSISINYRTPCHHHHHH
modifications: PEG3.4, site not stated
notes: The PEGylation is not described; also called PEGylated anti-GPC3 adnectin (PEG3.4)
[1]
  Kd: 8.14 nM
  koff: 0.000584 s⁻¹
  kon: 71800 M⁻¹ s⁻¹
[2]
  Kd: 5.12 nM
  koff: 0.000523 s⁻¹
  kon: 102000 M⁻¹ s⁻¹

B3: 6077_F02.dPEG (designed binder)
chain: MGVSDVPRDLEVVAATPTSLLISWSDDYHAHRYYRITYGETGGNSPVQEFTVPGEHVTATISGLKPGVDYTITVYAVTYDGEKAATDWSISINYRTPCHHHHHH
modifications: dPEG, site and size not stated
notes: The PEGylation is not described; also called PEGylated anti-GPC3 adnectin (dPEG)
[1]
  Kd: 8.19 nM and 8.1 nM
  koff: 0.000602 s⁻¹ and 0.000607 s⁻¹
  kon: 73500 M⁻¹ s⁻¹ and 75000 M⁻¹ s⁻¹
[2]
  Kd: 5.43 nM and 5.26 nM
  koff: 0.000559 s⁻¹ and 0.000557 s⁻¹
  kon: 103000 M⁻¹ s⁻¹ and 106000 M⁻¹ s⁻¹

B4: ADX_4578_H08 (designed binder)
chain: MGVSDVPRDLEVVAATPTSLLISWSGYDYGDSYYRITYGETGGNSPVQEFTVPDGSNTATISGLKPGVDYTITVYAVEAYGKGYTRYTPISINYRTEIDKPSQ
[3]
  ELISA OD: 1.02 OD

B5: ADX_4578_F03 (designed binder)
chain: MGVSDVPRDLEVVAATPTSLLISWHPPHPNIVSYHIYYGETGGNSPVQEFTVEGSKSTAKISGLKPGVDYTITVYAVAPEIEKYYQIWINYRTEGSGS
[3]
  ELISA OD: 0.6 OD

B6: ADX_6077_F02 DG→DA mutant, alkylated (designed binder)
chain: GVSDVPRDLEVVAATPTSLLISWSDDYHAHRYYRITYGETGGNSPVQEFTVPGEHVTATISGLKPGVDYTITVYAVTYDAEKAATDWSISINYRTPC
modifications: C-terminal cysteine alkylated
notes: also called P1-055660; PI-055660
[4]
  Fold affinity (KD) difference vs alkylated parent: 4.5 fold
  Kd: 25.4 nM
  koff: 0.00183 s⁻¹
  kon: 72200 M⁻¹ s⁻¹
[5]
  Fold affinity (KD) difference vs alkylated parent: 4.3 fold
  Kd: 16 nM
  koff: 0.0017 s⁻¹
  kon: 100000 M⁻¹ s⁻¹
[6]
  huGPC3 koff (mut/par): 3.9 fold
[7]
  muGPC3 koff (mut/par): 3.7 fold
[8]
  huGPC3 on cells EC50 (mutant/parent): 1.3 fold

B7: ADX_6077_F02 DG→DV mutant, alkylated (designed binder)
chain: GVSDVPRDLEVVAATPTSLLISWSDDYHAHRYYRITYGETGGNSPVQEFTVPGEHVTATISGLKPGVDYTITVYAVTYDVEKAATDWSISINYRTPC
modifications: C-terminal cysteine alkylated
notes: also called P1-055672
[4]
  Fold affinity (KD) difference vs alkylated parent: 7.8 fold
  Kd: 43.5 nM
  koff: 0.00309 s⁻¹
  kon: 71000 M⁻¹ s⁻¹
[5]
  Fold affinity (KD) difference vs alkylated parent: 7.8 fold
  Kd: 30 nM
  koff: 0.0025 s⁻¹
  kon: 85000 M⁻¹ s⁻¹
[6]
  huGPC3 koff (mut/par): 7.9 fold
[7]
  muGPC3 koff (mut/par): 7 fold

B8: ADX_6077_F02 DG→GG mutant, alkylated (designed binder)
chain: GVSDVPRDLEVVAATPTSLLISWSDDYHAHRYYRITYGETGGNSPVQEFTVPGEHVTATISGLKPGVDYTITVYAVTYGGEKAATDWSISINYRTPC
modifications: C-terminal cysteine alkylated
notes: also called P1-055670
[6]
  huGPC3 koff (mut/par): 14 fold
[7]
  muGPC3 koff (mut/par): 12 fold

B9: ADX_6077_F02 DG→DS mutant, alkylated (designed binder)
chain: GVSDVPRDLEVVAATPTSLLISWSDDYHAHRYYRITYGETGGNSPVQEFTVPGEHVTATISGLKPGVDYTITVYAVTYDSEKAATDWSISINYRTPC
modifications: C-terminal cysteine alkylated
notes: also called P1-055667
[4]
  Fold affinity (KD) difference vs alkylated parent: 4.2 fold
  Kd: 23.3 nM
  koff: 0.00166 s⁻¹
  kon: 71600 M⁻¹ s⁻¹
[5]
  Fold affinity (KD) difference vs alkylated parent: 3.9 fold
  Kd: 15 nM
  koff: 0.0015 s⁻¹
  kon: 100000 M⁻¹ s⁻¹
[6]
  huGPC3 koff (mut/par): 3.5 fold
[7]
  muGPC3 koff (mut/par): 3.3 fold
[8]
  huGPC3 on cells EC50 (mutant/parent): 1.4 fold

B10: ADX_6077_F02 DG→EG mutant, alkylated (designed binder)
chain: GVSDVPRDLEVVAATPTSLLISWSDDYHAHRYYRITYGETGGNSPVQEFTVPGEHVTATISGLKPGVDYTITVYAVTYEGEKAATDWSISINYRTPC
modifications: C-terminal cysteine alkylated
notes: also called P1-055673
[4]
  Fold affinity (KD) difference vs alkylated parent: 5.3 fold
  Kd: 30 nM
  koff: 0.00229 s⁻¹
  kon: 76300 M⁻¹ s⁻¹
[5]
  Fold affinity (KD) difference vs alkylated parent: 5.1 fold
  Kd: 19 nM
  koff: 0.0021 s⁻¹
  kon: 110000 M⁻¹ s⁻¹
[6]
  huGPC3 koff (mut/par): 5.4 fold
[7]
  muGPC3 koff (mut/par): 5.1 fold
[8]
  huGPC3 on cells EC50 (mutant/parent): 1.6 fold

B11: ADX_6077_F02 DG→AG mutant, alkylated (designed binder)
chain: GVSDVPRDLEVVAATPTSLLISWSDDYHAHRYYRITYGETGGNSPVQEFTVPGEHVTATISGLKPGVDYTITVYAVTYAGEKAATDWSISINYRTPC
modifications: C-terminal cysteine alkylated
notes: also called P1-055669
[4]
  Fold affinity (KD) difference vs alkylated parent: 4.2 fold
  Kd: 23.7 nM
  koff: 0.00243 s⁻¹
  kon: 103000 M⁻¹ s⁻¹
[5]
  Fold affinity (KD) difference vs alkylated parent: 4 fold
  Kd: 15 nM
  koff: 0.0021 s⁻¹
  kon: 140000 M⁻¹ s⁻¹
[6]
  huGPC3 koff (mut/par): 5.9 fold
[7]
  muGPC3 koff (mut/par): 5.5 fold
[8]
  huGPC3 on cells EC50 (mutant/parent): 1.1 fold

B12: ADX_6077_F02 DG→DL mutant, alkylated (designed binder)
chain: GVSDVPRDLEVVAATPTSLLISWSDDYHAHRYYRITYGETGGNSPVQEFTVPGEHVTATISGLKPGVDYTITVYAVTYDLEKAATDWSISINYRTPC
modifications: C-terminal cysteine alkylated
notes: also called P1-055671
[4]
  Fold affinity (KD) difference vs alkylated parent: 3.9 fold
  Kd: 21.9 nM
  koff: 0.00159 s⁻¹
  kon: 72600 M⁻¹ s⁻¹
[5]
  Fold affinity (KD) difference vs alkylated parent: 3.8 fold
  Kd: 15 nM
  koff: 0.0015 s⁻¹
  kon: 100000 M⁻¹ s⁻¹
[6]
  huGPC3 koff (mut/par): 3.6 fold
[7]
  muGPC3 koff (mut/par): 3.1 fold
[8]
  huGPC3 on cells EC50 (mutant/parent): 1.7 fold

B13: ADX_4578_B06 (designed binder)
chain: MGVSDVPRDLEVVAATPTSLLISWFPDRYVYYITYGETGGNSPVQEFTVEGHKQTAYISGLKPGVDYTITVYAIYYYPDDFQGYPQPISINYRTEGSGS
[3]
  ELISA OD: 0.17 OD

B14: ADX_5274_E01 (designed binder)
chain: MGVSDVPRDLEVVAATPTSLLISWSGDYHPHRYYRITYGETGGNSPVQEFTVPGEHETATISGLKPGVDYTITVYAVTYDGEKADKYPPISINYRTEIDKPSQ
[3]
  ELISA OD: 2.37 OD

B15: ADX_6077_F02 DG→SG mutant, alkylated (designed binder)
chain: VSDVPRDLEVVAATPTSLLISWSDDYHAHRYYRITYGETGGNSPVQEFTVPGEHVTATISGLKPGVDYTITVYAVTYSGEKAATDWSISINYRTPC
modifications: C-terminal cysteine alkylated
notes: also called P1-055668
[4]
  Fold affinity (KD) difference vs alkylated parent: 4.2 fold
  Kd: 23.5 nM
  koff: 0.00221 s⁻¹
  kon: 94000 M⁻¹ s⁻¹
[5]
  Fold affinity (KD) difference vs alkylated parent: 4.1 fold
  Kd: 16 nM
  koff: 0.002 s⁻¹
  kon: 130000 M⁻¹ s⁻¹
[6]
  huGPC3 koff (mut/par): 5.2 fold
[7]
  muGPC3 koff (mut/par): 4.8 fold
[8]
  huGPC3 on cells EC50 (mutant/parent): 1.1 fold

B16: ADX_4606_F06 (designed binder)
chain: MGVSDVPRDLEVVAATPTSLLISWNSGHSGQYYRITYGETGGNSPVQEFTVPRYGYTATISGLKPGVDYTITVYAVAHSEASAPISINYRTEIDKPSQ
[3]
  ELISA OD: 1.73 OD

B17: ADX_5273_C01 (designed binder)
chain: MGVSDVPRDLEVVAATPTSLLISWSDPYEEERYYRITYGETGGNSPVQEFTVPAFHTTATISGLKPGVDYTITVYAVTYKHKYAYYYPPISINYRTEIDKPSQ
[3]
  ELISA OD: 1.35 OD

B18: ADX_5273_D01 (designed binder)
chain: MGVSDVPRDLEVVAATPTSLLISWEPSYKDDRYYRITYGETGGNSPVQEFTVPSFHQTATISGLKPGVDYTITVYAVTYEPDEYYFYYPISINYRTEIDKPSQ
[3]
  ELISA OD: 2.1 OD
